From article PMC8348221, “Characterization of the Intramolecular Interactions and Regulatory Mechanisms of the Scaffold Protein Tks4” (International Journal of Molecular Sciences, 2021)
Numbering of substitutions follows the chain as printed. Names and notes keep the numbering of the source. Blank lines part the entries; values can stand above or below the binder they belong to. Where no end group is shown, it is not given here.

Experiments:
Details in all cases: both partners purified
[1] = target: T1, Tks4 SH3_(1)–SH3_(2) tandem SH3 fragment (residues 155–279) (human, UniProt A1X283 155-279, NT-647 amine-reactive dye (in the MST only)); assay: other fluorescence titration; intrinsic tryptophan fluorescence (excitation 295 nm, followed at 340 nm); SH3_(1)–SH3_(2) constant at 5 µM, PRR fragments 1.8–100 µM; PBS, 0.5 mM TCEP, 0.05% TWEEN 20; 1:1 binding model
T1 construct: human Tks4 (SH3PXD2B), residues 155-279: first and second SH3 domains with their linker; The vector has a TEV site after the His-tag; Unlabelled in the tryptophan fluorescence titrations; source: E. coli Rosetta pLysS, purified
T1 sequence (looked up): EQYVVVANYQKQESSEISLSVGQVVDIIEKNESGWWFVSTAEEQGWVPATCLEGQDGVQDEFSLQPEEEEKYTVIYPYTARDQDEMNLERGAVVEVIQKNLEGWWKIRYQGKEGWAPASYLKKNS

[2] = target: T1, Tks4 SH3_(1)–SH3_(2) tandem SH3 …; assay: as above; remark: listed apart in the source
[3] = target: T1, Tks4 SH3_(1)–SH3_(2) tandem SH3 …; assay: MST; NT-647-labelled SH3_(1)–SH3_(2) constant at 20 nM, titrated with PRRL (16-step 2:3 dilutions from 166 µM); PBS, 0.5 mM TCEP, 0.05% TWEEN 20; room temperature; standard Kd fit model
[4] = target: T2, Tks4 PX–SH3_(2) fragment (residues 1–279) (human, UniProt A1X283 1-279); assay: MST; NT-647-labelled PRR–SH3_(3) constant at 20 nM, titrated with PX–SH3_(2) (16-step 1:2 dilutions from 40 µM); PBS, 0.5 mM TCEP, 0.05% TWEEN 20; room temperature; 1:1 Kd fit
T2 construct: human Tks4 (SH3PXD2B), residues 1-279: PX, SH3_(1) and SH3_(2) domains; The modified pET vector has a TEV site after the His-tag; source: E. coli Rosetta pLysS, purified
T2 sequence (looked up): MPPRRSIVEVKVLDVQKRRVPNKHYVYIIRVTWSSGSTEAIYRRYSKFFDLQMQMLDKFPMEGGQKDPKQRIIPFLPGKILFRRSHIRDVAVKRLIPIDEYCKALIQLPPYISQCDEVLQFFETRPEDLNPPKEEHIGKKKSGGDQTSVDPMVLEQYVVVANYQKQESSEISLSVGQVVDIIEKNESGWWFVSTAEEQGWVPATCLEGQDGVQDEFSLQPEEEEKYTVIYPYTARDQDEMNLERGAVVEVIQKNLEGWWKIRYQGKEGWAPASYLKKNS

[5] = target: T2, Tks4 PX–SH3_(2) fragment (residues …); assay: ITC; PX–SH3_(2) 20 µM in the cell, PRR–SH3_(3) 250 µM in the syringe; 25 °C; PBS with 0.5 mM TCEP; one set of independent binding sites model
[6] = target: T3, Tks4 PX–SH3_(1) fragment (residues 1–210) (human, UniProt A1X283 1-210); assay: MST; NT-647-labelled SH3_(3) constant at 20 nM, titrated with PX–SH3_(1) (16-step 2:3 dilutions from 412 µM) or, as a control, with SH3_(1); PBS, 0.5 mM TCEP, 0.05% TWEEN 20; room temperature
T3 construct: human Tks4 (SH3PXD2B), residues 1-210: PX and SH3_(1) domains; The vector has a TEV site after the His-tag; source: E. coli Rosetta pLysS, purified
T3 sequence (looked up): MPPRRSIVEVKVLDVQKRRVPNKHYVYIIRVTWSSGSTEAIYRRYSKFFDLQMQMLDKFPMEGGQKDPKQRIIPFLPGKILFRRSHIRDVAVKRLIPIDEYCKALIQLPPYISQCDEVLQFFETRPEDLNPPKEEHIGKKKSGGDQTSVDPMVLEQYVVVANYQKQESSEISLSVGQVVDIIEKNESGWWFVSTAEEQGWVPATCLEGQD

B1: Tks4 PRRL fragment (residues 333–370) (domain or fragment, human)
chain: GSHMGDAKQRSPKMRQRPPPRRDMTIPRGLNLPKPPIPPQVE
notes: four N-terminal residues that are cloning artifacts; human Tks4 (SH3PXD2B), residues 333-370: proline-rich region with the PTAM (PPPRR) and the PKPPIPP motif; also called wild type PRRL; not shown: His-tag, N-terminal, cleaved
Kd [1]: 11 µM | Kd [2]: 24 µM | Kd [3]: 15 µM

B2: Tks4 PRRL^T353E phosphomimetic mutant fragment (domain or fragment, human)
chain: B1 chain with T25E
notes: four N-terminal residues that are cloning artifacts; human Tks4 (SH3PXD2B), residues 333-370 with the phosphomimetic Thr-to-Glu mutation T353E; not shown: His-tag, N-terminal, cleaved
Kd [1]: 10 µM

B5: Tks4 PRRS peptide (peptide)
peptide: KMRQRPPPRRDMTIPRG
notes: human Tks4 (SH3PXD2B), truncated version of PRRL containing only the PTAM; source: synthetic peptide (Fmoc/tBu SPPS, RP-HPLC purified)
Kd [1]: 12 µM

More lines, now with the values ahead:

Kd [4]: ~0.24 µM | Kd [5]: 0.3 ± 0.2 µM
B3: Tks4 PRR–SH3_(3) fragment (residues 333–426) (domain or fragment, human, UniProt A1X283 333-426, looked up)
chain: GDAKQRSPKMRQRPPPRRDMTIPRGLNLPKPPIPPQVEEEYYTIAEFQTTIPDGISFQAGLKVEVIEKNLSGWWYIQIEDKEGWAPATFIDKYK
modifications: NT-647 amine-reactive dye (in the MST only)
notes: human Tks4 (SH3PXD2B), residues 333-426: proline-rich region and SH3_(3) domain; The vector has a TEV site after the His-tag; Labelled in the MST, unlabelled in the ITC; source: E. coli Rosetta pLysS, purified

Kd [6]: > 50 µM
B4: Tks4 SH3_(3) domain (residues 371–426) (domain or fragment, human, UniProt A1X283 371-426, looked up)
chain: EEYYTIAEFQTTIPDGISFQAGLKVEVIEKNLSGWWYIQIEDKEGWAPATFIDKYK
modifications: also: NT-647 amine-reactive dye label, site not given here (MST only)
notes: human Tks4 (SH3PXD2B), residues 371-426: third SH3 domain; The vector has a TEV site after the His-tag; also called third SH3 domain; source: E. coli Rosetta pLysS, purified
